*1 amine or outer side, *2 acyl side, *3 side chain or, on linkers, in order; H or OH if unused. Bridges are numbered along the chain shown (N, C = ends). Primed or numbered codes have the meaning given here. [ ]: non-standard residue; d: D form. The star is where a group is joined. Phe(4-OMe)(4) = O-methyl-L-tyrosine, COc1ccc(C[C@H](N[*:1])C(=O)[*:2])cc1; Phe(4-CONH2) = NC(=O)c1ccc(C[C@H](N)C(=O)O)cc1; 2Nal = N[C@@H](Cc1ccc2ccccc2c1)C(=O)O; AEF = NCCOc1ccc(C[C@H](N)C(=O)O)cc1; αMeL = CC(C)C[C@](C)(N)C(=O)O; Pen = CC(C)(S)[C@H](N)C(=O)O; αMeK = C[C@](N)(CCCCN)C(=O)O; Isovaleryl = CC(C)CC(=O)*; Abu = CC[C@H](N)C(=O)O Bounds are passed on as bounds.

These results are taken from patent US20190300590A1 (PROTAGONIST THERAPEUTICS, published 2019).

Test [1] concerns the target T1, IL23R_huFC (human, UniProt Q5VWK5 24-353).
T1 sequence (looked up): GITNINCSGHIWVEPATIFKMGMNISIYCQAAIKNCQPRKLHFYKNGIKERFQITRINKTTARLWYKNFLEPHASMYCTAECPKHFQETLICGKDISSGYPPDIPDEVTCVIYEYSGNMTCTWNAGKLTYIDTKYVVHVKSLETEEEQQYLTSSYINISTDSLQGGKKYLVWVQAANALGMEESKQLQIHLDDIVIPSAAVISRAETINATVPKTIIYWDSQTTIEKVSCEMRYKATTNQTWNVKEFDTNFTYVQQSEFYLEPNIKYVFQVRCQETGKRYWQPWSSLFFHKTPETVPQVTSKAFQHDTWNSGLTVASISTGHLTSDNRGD
In words: IL23-IL23R competitive binding ELISA. For orientation: ELISA stands for enzyme-linked immunosorbent assay.

Test [2] has as its target Rat IL-23R_huFC (rat). In words: rat ELISA vs IL-23.
The target in test [3] is T2, Rat IL-23R_huFC (rat, UniProt F1LX96 39-369).
T2 sequence: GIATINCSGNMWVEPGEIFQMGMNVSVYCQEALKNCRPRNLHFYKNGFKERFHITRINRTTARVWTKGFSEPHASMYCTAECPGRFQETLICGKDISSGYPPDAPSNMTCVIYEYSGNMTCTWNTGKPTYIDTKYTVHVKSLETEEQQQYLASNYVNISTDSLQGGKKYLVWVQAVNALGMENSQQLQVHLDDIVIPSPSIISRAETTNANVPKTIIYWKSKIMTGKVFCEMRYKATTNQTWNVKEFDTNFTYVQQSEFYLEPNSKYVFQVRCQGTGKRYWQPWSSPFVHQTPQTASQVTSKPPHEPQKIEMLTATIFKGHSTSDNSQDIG
In words: rat IL-23R competitive binding ELISA.

Test [4] deals with T3, IL23R_huFC (human, UniProt Q5VWK5 24-353).
T3 sequence (looked up): T1 sequence (looked up)
In words: human ELISA vs IL-23.

The target in test [5] is T4, IL-23R on human cells (IL-23R-expressing DB cells; human NK cells) (human, UniProt Q5VWK5 24-629).
T4 sequence (looked up): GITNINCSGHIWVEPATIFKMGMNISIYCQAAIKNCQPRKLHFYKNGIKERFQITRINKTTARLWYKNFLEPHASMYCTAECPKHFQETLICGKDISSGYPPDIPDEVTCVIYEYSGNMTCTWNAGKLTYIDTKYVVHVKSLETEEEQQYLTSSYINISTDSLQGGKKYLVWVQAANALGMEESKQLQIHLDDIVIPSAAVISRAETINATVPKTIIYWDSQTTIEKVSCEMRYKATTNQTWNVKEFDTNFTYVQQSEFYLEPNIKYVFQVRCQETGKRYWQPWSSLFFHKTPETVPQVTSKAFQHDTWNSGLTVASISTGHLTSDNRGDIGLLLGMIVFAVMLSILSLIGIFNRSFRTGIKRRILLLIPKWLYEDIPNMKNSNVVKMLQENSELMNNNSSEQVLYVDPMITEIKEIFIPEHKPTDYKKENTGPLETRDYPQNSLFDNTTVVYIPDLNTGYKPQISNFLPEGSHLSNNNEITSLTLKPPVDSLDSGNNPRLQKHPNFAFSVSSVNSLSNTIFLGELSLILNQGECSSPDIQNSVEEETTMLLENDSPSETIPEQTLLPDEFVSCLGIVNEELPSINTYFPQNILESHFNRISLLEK
In words: cell-based or functional assay.

Test [6] deals with T5, IL-23R on DB cells (human, UniProt Q5VWK5 24-629).
T5 sequence (looked up): T4 sequence (looked up)
In words: cell-based or functional assay.

As a reminder, the IC50 is the concentration at which inhibition is half-maximal. A lower IC50 goes with inhibition by little substance. XQTWQXYWLENG (Ac; Pen-Pen disulfide; hLeu; NH2) [Ac-[[Pen]-QTWQ-[Pen]-YW-[hLeu]-ENG-NH2]: the IC50 in test [1] was 100 to 1000 nM.

B1: Ac-[Pen]-QTWQ-[Pen]-YW-[(D)Asn]-ENG-NH2 (peptide)
peptide: Ac-[Pen]QTWQ[Pen]YW[dN]ENG-NH2
modifications: disulfide 1-6
SMILES: CC(=O)N[C@@H]1C(=O)N[C@@H](CCC(N)=O)C(=O)N[C@@H]([C@@H](C)O)C(=O)N[C@@H](Cc2c[nH]c3ccccc23)C(=O)N[C@@H](CCC(N)=O)C(=O)N[C@H](C(=O)N[C@@H](Cc2ccc(O)cc2)C(=O)N[C@@H](Cc2c[nH]c3ccccc23)C(=O)N[C@H](CC(N)=O)C(=O)N[C@@H](CCC(=O)O)C(=O)N[C@@H](CC(N)=O)C(=O)NCC(N)=O)C(C)(C)SSC1(C)C
Consider B1, for which the IC50 in test [1] was 1000 to 10000 nM.

As to Ac-[Abu]QTWQC[AEF][2Nal][αMeK]K(Isovaleryl)NG-NH2 (thioether 1-6) [Ac-Cyclo-[[Abu]-QTWQC]-[Phe[4-(2-aminoethoxy)]]-[2-Nal]-[α-MeLys]-[Lys(isovaleric acid)]-NG-NH2], the IC50 in test [2] lay within 10 to 25 nM.

In the case of XRTWQXYWRKFGXK (Ac; Pen-Pen disulfide; AEA; (D)-Lys; NH2) [Ac-[Pen]-RTWQ-[Pen]-YWRKFG-[AEA]-[(D)-Lys]-NH2], in test [3], the IC50 was in the range of 25 to 100 nM.

Take Ac-[Abu]QTWQC[Phe(4-CONH2)][2Nal][αMeK]K(Ac)NG-NH2 (thioether 1-6) [Ac-Cyclo-[[Abu]-QTWQC]-[Phe(4-CONH2)]-[2-Nal][α-MeLys]-[Lys(Ac)]-NG-NH2]: the IC50 in test [2] was 10 to 25 nM.

Consider Ac-[2Nal][Abu]QTWQC[AEF][2Nal][αMeK]ENN-NH2 (thioether 2-7) [Ac-[2-Nal]-Cyclo-[[Abu]-QTWQC]-[Phe[4-(2-aminoethoxy)]]-[2-Nal]-[α-MeLys]-ENN-NH2], for which the half-maximal inhibitory concentration (IC50) in test [4] was less than 10 nM; in test [2] it was 10 to 25 nM. Also, the “pStat3 HTRF IC50” value in test [5] is less than 10 nM.

For the molecule XQTWQXFXKKNG (Ac; Pen-Pen disulfide; Phe(4-OMe); 2-Nal; α-MeLys; Lys(Ac); NH2) [Ac-[Pen]-QTWQ-[Pen]-[Phe(4-OMe)]-[2-Nal]-[α-MeLys]-[Lys(Ac)]-NG-NH2], the IC50 in test [3] lay in the range of 25 to 100 nM.

With XQTWQXFXLQNN (Ac; Pen-Pen disulfide; Phe[4-(2-acetylaminoethoxy)]; 2-Nal; α-MeLeu; NH2) [Ac-[Pen]-QTWQ-[Pen]-[Phe[4-(2-acetylaminoethoxy)]-[2-Nal]-[α-MeLeu]-QNN-NH2], the IC50 in test [1] was less than 10 nM. Also, in test [6], the “pStat3 HTRF IC50” value is less than 10 nM.

B2: Ac-[Pen]-QTWQ-[Pen]-[Phe[4-(2-acetylaminoethoxy)]-[2-Nal]-[α-MeLeu]-[Lys(Ac)]-NN-NH2 (peptide)
peptide: XQTWQXFXLKNN
modifications: Ac; Pen-Pen disulfide; Phe[4-(2-acetylaminoethoxy)]; 2-Nal; α-MeLeu; Lys(Ac); NH2
For B2, in test [1], the IC50 was less than 10 nM. Also, in test [6], the “pStat3 HTRF IC50” value was less than 10 nM.

Take XQTWQXFXKENA (Ac; Pen-Pen disulfide; Phe[4-(2-acetylaminoethoxy)]; 2-Nal; α-MeLys(Ac); NH2) [Ac-[Pen]-QTWQ-[Pen]-[Phe[4-(2-acetylaminoethoxy)]-[2-Nal]-[α-MeLys(Ac)]-ENA-NH2]: the IC50 in test [1] lay in the range of 10 to 25 nM. The “pStat3 HTRF IC50” value in test [6] is less than 10 nM.

As for XQTWQXFXVKNN (Ac; Pen-Pen disulfide; Phe(4-CONH2); 2-Nal; α-MeVal; Lys(Ac); NH2) [Ac-[Pen]-QTWQ-[Pen]-[Phe(4-CONH2)]-[2-Nal]-[α-MeVal]-[Lys(Ac)]-NN-NH2], in test [3], the IC50 was in the range of 10 to 25 nM.

In turn, XQTWQXFXKKNN (Ac; Pen-Pen disulfide; Phe[4-(2-aminoethoxy)]; 2-Nal; α-MeLys; Lys(Ac); NH2) [Ac-[Pen]-QTWQ-[Pen]-[Phe[4-(2-aminoethoxy)]-[2-Nal]-[α-MeLys]-[Lys(Ac)]-NN-NH2] registered an IC50 in test [3] of 10 to 25 nM.

Regarding XQTWQXFXKKNN (Ac; Pen-Pen disulfide; Phe(4-CONH2); 2-Nal; α-MeLys; Lys(Ac); NH2) [Ac-[Pen]-QTWQ-[Pen]-[Phe(4-CONH2)]-[2-Nal]-[α-MeLys]-[Lys(Ac)]-NN-NH2], the IC50 in test [3] lay within 25 to 100 nM.

Ac-[Abu]QTWQC[AEF]W[αMeK]ENG-NH2 (thioether 1-6) [Ac-Cyclo-[[Abu]-QTWQC]-[Phe[4-(2-aminoethoxy)]-W-[α-MeLys]-ENG-NH2]: the IC50 in test [2] was 10 to 25 nM.

For the molecule XQTWQXFXKKNG (Ac; Pen-Pen disulfide; Phe[4-(2-aminoethoxy)]; 2-Nal; α-MeLys; Lys(Ac); NH2) [Ac-[Pen]-QTWQ-[Pen]-[Phe[4-(2-aminoethoxy)]-[2-Nal]-[α-MeLys]-[Lys(Ac)]-NG-NH2], the half-inhibitory concentration (IC50) in test [3] is 25 to 100 nM.

On to XQTWQXYWLENG (Ac; Pen-Pen disulfide; hLeu; NH2) [Ac-[Pen]-QTWQ-[Pen]-YW-[hLeu]-ENG-NH2], for which the IC50 in test [1] lay in the range of 100 to 1000 nM.

Take Ac-[dK][Abu]QTWQC[Phe(4-OMe)(4)][2Nal][αMeL]ENG-NH2 (thioether 2-7) [Ac-(D)Lys-[Cyclo-[[Abu]-QTWQC]]-[Phe(4-OMe)]-[2-Nal]-[α-MeLeu]-ENG-NH2]: the IC50 in test [4] was less than 10 nM; in test [2], 10 to 25 nM. The “pStat3 HTRF IC50” value in test [5] was less than 10 nM.

B3: succinic acid-[Pen]-QTWQ[Pen]-[Phe(4-OMe)]-[2-Nal]-[α-MeLys]-[Lys(Ac)]-NG-NH2 (peptide)
peptide: XQTWQXFXKKNG
modifications: N-terminal succinic acid; Pen-Pen disulfide; Phe(4-OMe); 2-Nal; α-MeLys; Lys(Ac); NH2
In test [3], B3 yielded an IC50 of 25 to 100 nM.
